The text below walks through data of PMC7568260, “In vitro reconstitution and characterization of pyruvate dehydrogenase and 2‐oxoglutarate dehydrogenase hybrid complex from Corynebacterium glutamicum” (MicrobiologyOpen, 2020).

For data set [1], the target named is CgE1o (thiamine diphosphate-dependent 2-oxoglutarate dehydrogenase, OdhA), C-terminal His-tagged (Corynebacterium glutamicum) (UniProt Q8NRC3). The data set can be described thus: SEC; HiLoad 26/600 Superdex 200 pg or Superose 6 10/300 GL column, TESG10N buffer; mixtures incubated on ice for 30 min before the run; masses estimated against size standards; fractions read by SDS-PAGE (CBB) or Western blot.

Data set [2] has as its target CgE1p (thiamine diphosphate-dependent pyruvate dehydrogenase, AceE), C-terminal His- and Flag-tagged (Corynebacterium glutamicum) (UniProt Q8NNF6). The data set is described as above.
In data set [3] the target is CgE2-E3 subcomplex (Corynebacterium glutamicum) (UniProt Q8NNJ2).
Substrate in data set [4]: O=C(O)CCC(=O)C(=O)O
The data set can be described thus: purified protein. It counts as biochemical, Corynebacterium glutamicum. As to conditions: 0.2 mM CoA, 0.3 mM thiamine pyrophosphate, 3 mM L-cysteine, 5 mM MgCl2, 1 mM APAD+ (NAD+ analogue), TES-NaOH pH 7.6, 30 °C, CgE1o 20 μg with CgE2-E3 15 μg.

Substrate in data set [5]: CC(=O)C(=O)O
The data set can be described thus: purified protein. As to conditions: 0.2 mM CoA, 0.3 mM thiamine pyrophosphate, 3 mM L-cysteine, 5 mM MgCl2, 1 mM APAD+ (NAD+ analogue), TES-NaOH pH 7.6, 30 °C, CgE1p 15 μg with CgE2-E3 15 μg. The data set is classed as biochemical, Corynebacterium glutamicum.

In the case of “CgE1o (thiamine diphosphate-dependent 2-oxoglutarate dehydrogenase, OdhA), C-terminal His-tagged (from UniProt Q8NRC3 1-1221) (enzyme)”, the stoichiometry N in data set [1] is 6. Take “CgE1p (thiamine diphosphate-dependent pyruvate dehydrogenase, AceE), C-terminal His- and Flag-tagged (from UniProt Q8NNF6 1-922) (enzyme)”: the stoichiometry N in data set [2] is 2. The PDH activity against the amount of CgE1p (37, 150, 300, 600 pmol) with a fixed amount of CgE2-E3 (18 pmol) in data set [3] came out at 150 pmol.

B1: reconstituted ODH complex (CgE1o with CgE2‐E3) (Corynebacterium glutamicum ATCC 13032) (protein)
chain: SSASTFGQNAWLVDEMFQQFQKDPKSVDKEWRELFEAQGGPNTTPATTEAQPSAPKESAKPAPKAAPAAKAAPRVETKPADKTAPKAKESSVPQQPKLPEPGQTPIRGIFKSIAKNMDISLEIPTATSVRDMPARLMFENRAMVNDQLKRTRGGKISFTHIIGYAMVKAVMAHPDMNNSYDVIDGKPTLIVPEHINLGLAIDLPQKDGSRALVVAAIKETEKMNFSEFLAAYEDIVARSRKGKLTMDDYQGVTVSLTNPGGIGTRHSVPRLTKGQGTIIGVGSMDYPAEFQGASEDRLAELGVGKLVTITSTYDHRVIQGAVSGEFLRTMSRLLTDDSFWDEIFDAMNVPYTPMRWAQDVPNTGVDKNTRVMQLIEAYRSRGHLIADTNPLSWVQPGMPVPDHRDLDIETHNLTIWDLDRTFNVGGFGGKETMTLREVLSRLRAAYTLKVGSEYTHILDRDERTWLQDRLEAGMPKPTQAEQKYILQKLNAAEAFENFLQTKYVGQKRFSLEGAEALIPLMDSAIDTAAGQGLDEVVIGMPHRGRLNVLFNIVGKPLASIFNEFEGQMEQGQIGGSGDVKYHLGSEGQHLQMFGDGEIKVSLTANPSHLEAVNPVMEGIVRAKQDYLDKGVDGKTVVPLLLHGDAAFAGLGIVPETINLAKLRGYDVGGTIHIVVNNQIGFTTTPDSSRSMHYATDYAKAFGCPVFHVNGDDPEAVVWVGQLATEYRRRFGKDVFIDLVCYRLRGHNEADDPSMTQPKMYELITGRETVRAQYTEDLLGRGDLSNEDAEAVVRDFHDQMESVFNEVKEGGKKQAEAQTGITGSQKLPHGLETNISREELLELGQAFANTPEGFNYHPRVAPVAKKRVSSVTEGGIDWAWGELLAFGSLANSGRLVRLAGEDSRRGTFTQRHAVAIDPATAEEFNPLHELAQSKGNNGKFLVYNSALTEYAGMGFEYGYSVGNEDSIVAWEAQFGDFANGAQTIIDEYVSSGEAKWGQTSKLILLLPHGYEGQGPDHSSARIERFLQLCAEGSMTVAQPSTPANHFHLLRRHALSDLKRPLVIFTPKSMLRNKAAASAPEDFTEVTKFQSVINDPNVADAAKVKKVMLVSGKLYYELAKRKEKDGRDDIAIVRIEMLHPIPFNRISEALAGYPNAEEVLFVQDEPANQGPWPFYQEHLPELIPNMPKMRRVSRRAQSSTATGVAKVHQLEEKQLIDEAFEA
notes: CgE1o C-terminal His tag, pAA62, 134,664 Da, mainly hexamer alone; CgE2 (70,905 Da, lipoylated) co-expressed with N-terminal His/Flag CgE3 (50,652 Da), pKH13; E. coli BL21-CodonPlus (DE3); tags not cut; gel-filtration purified; complex about 940 kDa; with Dihydrolipoamide acetyltransferase component of pyruvate dehydrogenase complex (E2); Dihydrolipoyl dehydrogenase (E3)
In the case of B1, the Michaelis-Menten constant (Km) in “purified protein [4]” came to 10 ± 1 µM.

B2: reconstituted PDH complex (CgE1p with CgE2‐E3) (Corynebacterium glutamicum ATCC 13032) (protein)
chain: MADQAKLGGKPSDDSNFAMIRDGVASYLNDSDPEETNEWMDSLDGLLQESSPERARYLMLRLLERASAKRVSLPPMTSTDYVNTIPTSMEPEFPGDEEMEKRYRRWIRWNAAIMVHRAQRPGIGVGGHISTYAGAAPLYEVGFNHFFRGKDHPGGGDQIFFQGHASPGMYARAFMEGRLSEDDLDGFRQEVSREQGGIPSYPHPHGMKDFWEFPTVSMGLGPMDAIYQARFNRYLENRGIKDTSDQHVWAFLGDGEMDEPESRGLIQQAALNNLDNLTFVVNCNLQRLDGPVRGNTKIIQELESFFRGAGWSVIKVVWGREWDELLEKDQDGALVEIMNNTSDGDYQTFKANDGAYVREHFFGRDPRTAKLVENMTDEEIWKLPRGGHDYRKVYAAYKRALETKDRPTVILAHTIKGYGLGHNFEGRNATHQMKKLTLDDLKLFRDKQGIPITDEQLEKDPYLPPYYHPGEDAPEIKYMKERRAALGGYLPERRENYDPIQVPPLDKLRSVRKGSGKQQIATTMATVRTFKELMRDKGLADRLVPIIPDEARTFGLDSWFPTLKIYNPHGQNYVPVDHDLMLSYREAPEGQILHEGINEAGSVASFIAAGTSYATHGKAMIPLYIFYSMFGFQRTGDSIWAAADQMARGFLLGATAGRTTLTGEGLQHMDGHSPVLASTNEGVETYDPSFAYEIAHLVHRGIDRMYGPGKGEDVIYYITIYNEPTPQPAEPEGLDVEGLHKGIYLYSRGEGTGHEANILASGVGMQWALKAASILEADYGVRANIYSATSWVNLARDGAARNKAQLRNPGADAGEAFVTTQLKQTSGPYVAVSDFSTDLPNQIREWVPGDYTVLGADGFGFSDTRPAARRFFNIDAESIVVAVLNSLAREGKIDVSVAAQAAEKFKLDDPTSVSVDPNAPEE
notes: CgE1p C-terminal His (and Flag) tag, pKH4, 102,826 Da, dimer in solution; CgE2 (70,905 Da, lipoylated) co-expressed with N-terminal His/Flag CgE3 (50,652 Da), pKH13; E. coli BL21-CodonPlus (DE3); tags not cut; gel-filtration purified; with Dihydrolipoamide acetyltransferase component of pyruvate dehydrogenase complex (E2); Dihydrolipoyl dehydrogenase (E3)
As for B2, the Km in the data set “purified protein [5]” turned out to be 3500 ± 200 µM.
